Source: patent publication US20230279105A1 (SINGLE CELL TECHNOLOGY, published 2023)

target: T1, Human TIM-3 Human Fc tagged protein (human, fluorescently labeled with HiLyte Fluor 555 (sites not given)); experiment: capture slide probed with labeled TIM-3-Fc;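 further: IgG from single CD138-enriched plasma cells, isolated from lymphocytes, immobilized on a derivatized glass slide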
T1 construct: Bought construct; also called TIM-3 protein tagged with human Fc; ACROBiosystems catalog no: TM3-H5258

Binder | binding result
SCT-Fa165 (antibody, V domains shown, murine IgG) VH: QVQLQQPGTELVKPGASVKVSCKASGYTFVSYWIHWVKQRPGQGLEWIGNIDPNNGGSNYNERFRTKATLTVDKSSSTAYMQLSSLASEDSAVYYCARWGWDGFAYWGQGTLVTVSA VL: DAVMTQTPLSLPVSLGDQASISCRSSQSLENSNGNTYLNWYLQKPGQSPQLLIYRVSTRFSGVLDRFSGSGSGTDFTLKISRVEAEDLGVYFCLQLTHVPYTFGGGTKLEIK | binds
SCT-Fa166 (antibody, V domains shown, murine IgG) VH: QVQLQQPGTELVKPGASVKVSCKASGYTFVSYWMHWVKQRPGQGLEWIGNIDPNNGGSNYNERFRTKATLTVDKSSSTAYMQLSSLASEDSAVYYCARWGWDGFAYWGQGTLVTVSA VL: DAVMTQTPLSLPVSLGDQASISCRSSQSLENSNGNTYLNWYLQKPGQSPQLLIYRVSTRFSGVLDRFSGSGSGTDFTLKISRVEAEDLGVYFCLQLTHVPYTFGGGTKLEIK | binds
SCT-Fa168 (antibody, V domains shown, murine IgG) VH: QVQLQQPGTELVKPGASVKVSCKTSGYTFISYWMHWVKQRPGQGLEWIGNIDPNSGTTNYNEKFKTKATLTVDKSSSTAYMQLSSLTSEDSAVYYCARWGWDGFAYWGQGTLVTVSA VL: DAVMTQTPLSLPVSLGDQASISCRSSQSLENSNGNTYLNWYLQKPGQSPQLLIYRVSTRFSGVLDRFSGSGSGTDFTLKISRVEAEDLGVYFCLQVTHVPYTFGGGTKLEIK | binds
SCT-Fa161 (antibody, V domains shown, murine IgG) VH: QVQLQQPGTELVKPGASVKVSCKASGYTFISYWMHWVKQRPGQGLEWIGNIDPNYGGPNYNEKFKTKATLTVDKSSSTAYMQLSSLTSEDSAVYYCARWGWDGFAYWGQGTLVTVSA VL: QIVLTQSPALMSASPGEKVTMTCSASSSVSYMYWYQQKPRSSPKPWIYLTSNLASGVPARFSGSGSGTSYSLTISSMEAEDAATYYCQQWSSNPFTFGSGTKLEIK | binds
SCT-Fa163 (antibody, V domains shown, murine IgG) VH: QVQLQQPGTELVKPGASVKVSCKASGYTFISYWMHWVKQRPGQGLEWIGNIDPNYGGSNYNEKFKSKATLTVDKSSSTAYMQLSSLTSEDSAVYYCARWGWDGFAYWGQGTLVTVSA VL: DIQMTQSPSSLSASLGERVSLTCRASQDIGSSLNWLQQEPDGTIKRLIYATSSLDSGVPKRFSGSRSGSDYSLTISSLESEDFVDYYCLQYASSPFTFGSGTKLEIK | binds
SCT-Fa169 (antibody, V domains shown, murine IgG) VH: QVQLQQPGTELVMPGASVNLSCKASGYTFTSYWMHWVKQRPGQGLEWIGEIDPSDSYANYNQNFKGKATLTVDKSSITAYMQLSSLTSEDSAVYYCARNYGSNYVGYFDYWGQGTTLTVSS VL: DIQMTQTTSSLSASLGDRVTISCRASQDISNYLNWYQQKPDGTVKLLIYYTSRLHSGVPSRFSGSGSGTDYSLTISNLDQEDIATYFCQQEKTLPWTFGGGTKLEIK | binds
SCT-Fa170 (antibody, V domains shown, murine IgG) VH: QVQLQQSGAELARPGASVKLSCKASGYTFRSYGLSWVKQRTGQGLEWIGEIYPRSGNTYYNEKFKDRVTLTADKSSSAAYMELRSLTSEDSAVYFCARSTAVVAGGFDYWGQGTALTVSS VL: DIVMTQSPSSLTVTAGEKVTMSCKSSQSLFNSRTQKNSLTWYQQKPGQPPKLLIFWASTRESGVPDRFTGSASGTDFTLTLSGVQAEDLAIYYCQNDYTYPWTFGGGTKLEIK | binds
SCT-Fa171 (antibody, V domains shown, murine IgG) VH: QVQLQQSGAELARPGASVKLSCKASGYTFTNYGISWVKQRTGQGLEWIGEIYPRSGNSYYNEKFKGKATLTADKSSSTAYMELRSLTSEDSAVYFCARSTAIVAGGFDYWGQGTTLTVSS VL: DIVMTQSPSSLTVTAGEKVTMSCKSSQSLLNSRIQKNSLTWYQQKPGQPPKLLIYWASTRESGVPDRFTASGSGTDFTLTISSVQAEDLAVYYCQNDYTYPWTFGGGTKLEIK | binds
SCT-Fa172 (antibody, V domains shown, murine IgG) VH: QVQLQQSGAELARPGASVKLSCKASGYTFTSYGISWVKQRTGQGLEWIGEIYPRSGNTYYNEKFKGKATLTADKSSSTAYMELRSLTSEDSAVYFCARSTYGSSSYAMDYWGQGTSVTVSS VL: DVLMTQTPLSLPVSLGDQASISCRSSQSIVHSNGNTYLEWYLQKPGQSPKLLIYKVSNRFSGVPDRFSGSGSGTDFTLKISRVEAEDLGVYYCFQGSHVPYTFGGGTKLEIK | binds
SCT-Fa173 (antibody, V domains shown, murine IgG) VH: QVQLQQSGAELMRPGASVTLSCKASGYTFPDYEMYWVKQTPVHGLEWIGVIDPETGGTAYNQKFEVKAILTADKSSNTAYMELRSLTSEDSAVYYCTRWAYWGQGTLVTVSA VL: QIVLTQSPAIMSASLGERVTMTCTASSSVSSSYLHWYQQKPGSSPKLWVYSTSNLASGVPGRFSGSGSGTSYSLTISSMEAEDAATYYCHHYHRSPPTFGGGTKLEIK | binds
SCT-Fa178 (antibody, V domains shown, murine IgG) VH: QVQLQQSGAELVRPGASVTLSCKASGYTFTDYEMYWVKQTPVHGLEWIGVIDPETGGTAHDQKFKGKAILTADKSSSTAYMELRSLTSEDSAVYYCTRWAFWGQGTLVTVSA VL: QIVLTQSPAIMSASLGERVTMTCTASSSVSSSYLHWYQQKPGSSPKLWVYSTSNLASGVPGRFSGSGSGTSYSLTISSMEAEDAATYYCHHYNRSPPTFGGGTKLEIK | binds
SCT-Fa174 (antibody, V domains shown, murine IgG) VH: QVQLQQSGAELVKPGASVKLSCKASGYSITGYYIHWVKQRPGQGLEWIGWIYPGSGSIKYNEKFKGKATLTADTSSSTADMQLSSLTSEDSAVYYCAREAWGNWYFDVWGTGTTVTVSS VL: DILLTQSPAILSVSPGERVSFSCRASQSIGTSIHWYQQRTNGSPRLLIKYASESISGIPSRFSGSGSGTDFTLSINSVESEDIADYYCQQSNSWPYTFGGGTKLEIK | binds
SCT-Fa175 (antibody, V domains shown, murine IgG) VH: QVQLQQSGAELVRPGASVTLSCKASGYTFSDYEMHWVKQTPVHGLEWIGVIDPETGDTAYNQKFKDKAVLTADKSSNTAYMELRSLTSEDSAVFFCTSNGYPEHWGQGTTLTVSS VL: QIVLTQSPAIMSASLGERVTMTCTASSGVSSTYLHWYQQRPGSSPKLWIYSTSTLASGVPARFSGSGSGTSYSLTISSMEAEDAATYYCHQYHRSPLTFGAGTKLELK | binds
SCT-Fa176 (antibody, V domains shown, murine IgG) VH: QVQLQQSGAELVRPGASVTLSCKASGYTFTDFEMHWVKQTPVHGLEWIGAIDPETGGTAYNQKFKGKAILTADRSSSTAYMELRSLTSEDSAVYYCTRGIYYGNYGSAMDYWGQGTSVTVSS VL: DVLMTQTPLSLPVSLGDQASISCRSSQSIVHSNGNTYLEWYLQKPGQSPKLLIYKVSNRFSGVPDRFSGSGSGTDFTLKISRVEAEDLGVYYCFQGSHAPLTFGAGTKLELK | binds
SCT-Fa177 (antibody, V domains shown, murine IgG) VH: QVQLQQSGAELVRPGASVTLSCKASGYTFTDYEMYWVKQTPVHGLEWIGVIDPETGGTAHDQKFKGKAILTADKSSSTAYMELRSLTSEDSAVYYCTRWAFWGQGTLVTVSA VL: DVVMTQTPLSLPVSLGDQASISCRSSQSLVHSNGNTYLHWYLQKPGQSPKLLIYKVSNRFSGVPDRFSGSGSGTDFTLRISRVEADDLGVYFCSQSTHVPYTFGGGTKLEIK | binds
SCT-Fa179 (antibody, V domains shown, murine IgG) VH: QVQLQQSGAELVRPGTSVKVSCKASGYAFSNYLIEWVKQRPGQGLEWIGVINPGNGGTTYNEKFKDKATLTADRSSTTAYMQLSSLTSEDSAVFFCARTAYGSPLDYWGQGTTLTVSS VL: DIKMTQSPSSMYASRGERVTITCKASQDINRYLSWLQQKPGKSPKTLIYRANRLVDGVPSRFSGSGSGQDYSLTISSLEYEDMGIYYCLQYDEFPYTFGGGTKLEIK | binds
SCT-Fa180 (antibody, V domains shown, murine IgG) VH: QVQLQQSGAELVRPGTSVKVSCKASGYAFTNYLIEWAKQRPGQGLEWIGVINPGSGATTYNEKFKGRATLTADMSSTTAYMQLSSLTSEDSAVFFCARTAYGSPLDCWGQGTTLTVSS VL: DIKMTQSPSSMYASLGERVTITCKASQDINRYLSWLQQKAGKSPKTLIYRENRLVEGVPSRFSGSGSGQDYSLTISSLEYEDMGIYYCLQYDEFPYTFGGGTKLEIK | binds
SCT-Fa007 (antibody, V domains shown, murine IgG) VH: EVKLVESEGGLVHPGSSMKLSCTASGFTFSDYYMAWVRQVPEKGLEWIANINFDGSGTYYLDSLKSRFIISRDNGKNILYLQMSGLKSEDTATYYCARLYDGYYAYWGQGTTLTVSS VL: DVVMTQTPLSLPVSLGDQASISCRSSQSLVHSNGNTYLYWYLQKPGQSPKLLIYKVSNRFSGVPDRFSGSGSGTDFTLKISRVEAEDLGVYFCSQSTHVPLTFGAGTKLELK | binds
SCT-Fa008 (antibody, V domains shown, murine IgG) VH: EVKLVESEGGLVQLGSSMKLSCTASGFTFSDYYMAWVRQVPEKGLEWIANINFDGSGTYYLDSLKSRFIISRDNGKNILYLQMSGLKSEDTATYYCARLYDGYYAYWGQGTTLTVSS VL: DVVVTQTPLSLPVSLGDQASISCRSSQSLVHSNGNTYLYWYLQKPGQSPKLLIYKVSNRFSGVPDRFSGSGSGTDFTLKISRVEAEDLGVYFCSQSTHVPLTFGAGTKLELK | binds
SCT-Fa018 (antibody, V domains shown, murine IgG) VH: EVKLVESEGGLVQPGSSMKLSCTASGFTFSDYYMAWVRQVPEKGLEWVANINFDGSSSYYLDSLKSRFIISRDNTKNILYLQMSSLKSEDTATYYCARLYDGYYAYWGQGTTLTVSS VL: DVVMTQTPLSLPVSLGDQASISCRSSQSLIHSNGNTYLYWYLQKPGQSPTLLIYKVSNRFSGVPDRFSGSGSGTDFTLKISRVEAEDLGVYFCSQSTHVPLTFGAGSKLELK | binds
SCT-Fa181 (antibody, V domains shown, murine IgG) VH: QVQLQQSGAELVRPGTSVKVSCKASGYAFTNYLIEWVKQRPGQGLEWIGVINPGSGATNYNEKFKGKATLTADKSSSTAYMQLRSLASEDSAVYFCARRTTVVAPYAMDYWGQGTSVTVSS VL: DIQMTQTTSSLSASLGDRVTISCRASQDISNYLNWYQQKPDGTVELLIYYTSRLHSGVPSRFSGSGSGTDYSLTISNLEQEDIATYFCQQGNTLPRTFGGGTKLEIK | binds
SCT-Fa182 (antibody, V domains shown, murine IgG) VH: QVQLQQSGAELVRPGTSVKVSCKASGYAFTNYLIEWVKQRPGQGLEWIGVISPGSGATTYNEKFKGKATLTADRSSTTAYMQLSSLTSEDSAVYFCARSAYGSPLDFWGQGTTLTVSS VL: DIKMTQSPSSMYASLGERVTITCKASQDINRYLSWFQQKPGKSPKTLIYRVNRLVDGVPLRFSGSGSGQDYSLTISSLDYEDMGIYYCQQYDEFPYTFGGGTKLEIK | binds
